Where two headings read alike, the source gives them in different places.

Test in all cases: ITC
In general terms: ITC needs no label: the signal is the heat of the interaction.

Assay [1] concerns the target CaV1.2 IQ domain (Homo sapiens) (UniProt Q13936).
Assay [2] deals with CaV1.2 IQ domain TripleA mutant (CaV1.2 F1618A, F1619A, Y1622A) (human).
Assay [3] shares this target. This is another data set of the same source.
For another assay, the target named is CaV1.2 IQ domain (human).

One may read the Kd as the concentration at which binding is half-saturated. Take CaBP1 N-lobe, Q9NZU7: in assay [1], the Kd was 1100 nM.
In general, stoichiometry N refers to the number of molecules, sites or subunits per partner or assembly. Turning to “calcium binding protein 1 (CaBP1) Δ2–15 (natural protein)”, in assay [2], the Kd stood at 10.9 nM, the dH is -4.77 kcal/mol and the stoichiometry N was 0.89. This substance also came in with a Kd in assay [3] of 221 nM.
In the assay with CaV1.2 IQ domain (human), “calmodulin (CaM), full-length (from UniProt P0DP23 1-149) (natural protein)” registered a Kd of 0.00085 nM and a dH of -5.74 kcal/mol. Further, the dH in assay [2] is -10.6 kcal/mol.

For the origin of these results see PMC3839849.
